According to the domain aggregation screens of Martell et al. (2025):

Test: soluble fraction after stress (log2 fold change); higher = more stays soluble; pooled small domains, quantitative proteomics
Conditions: stress: 50 degC
Outline: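 Quantitative proteomics served as the high-throughput read-out for pooled custom libraries of small protein domains. Each was stressed at 50°C. Aggregation propensity is expressed as the base-two log fold change in soluble protein after stress. A higher value means a larger share of the protein remains in solution.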
With “HMEITRDTVIQWLEAERRSQTWLSKQLGVSVQAVSNWLREKNPQTISASAQITIRALMEEDAAK” the “soluble fraction (log2)” value was -0.42.
In the case of “HMTAFSEQLIKLRKQKGLSQEQLGAAVGVTRQTVSKWELGDTTPELGKLVQLSDYFQLSIDELVGH”, the “soluble fraction (log2)” value is reported as -0.0666.
For “HMVEPDELTEREREVLQFVARGLSNKEIGAALALSPHTIKAHLRSILDKLHLRSRAEAAAWAVRSGLS”, the “soluble fraction (log2)” value was -0.143.
In the case of “HMALSTRERMSFVLEVLKEKEFIPFVDLFSPEEGRAGVVVTFLALMELMKDSLIEIVQTKNFGEIHVRARL”, the “soluble fraction (log2)” value is reported as -0.218.
For “HMSTPVPIEGQPTENLNLRDQPSTSGKILTTIPKGKTVTILSEKNANGWYKVSYNGKTGYVSGSYFKVTK”, the “soluble fraction (log2)” value was 0.317.
With “HMATAADLLQSATGVPRSDALLLLAKLLGVAKERLIAHPETVVSEKTQATFSDWIERVRGGFPTTYLLG” the “soluble fraction (log2)” value was -0.0115.
For “HMLIPADETEAKVLSVLSREPLHVDEIRNQAGLPIEKISATLALMELKGMVRQVGGMNYVSV”, the “soluble fraction (log2)” value was 0.122.
For “HMTGMDALIGRRVFVSEEILPGDAGGRVAVDGDSWRAISVGTAKPIPAGTEVRIHGYKSLILEVEPI”, the “soluble fraction (log2)” value was -0.162.
For “HMDALIWYVSRGQQKFGPFNYFGVLKALQDKSVFEFDYVWKEGTENWVRLAEHELFSQEKVRELLA”, the “soluble fraction (log2)” value was -0.203.
With “HMIVMPELRGKDLKEAERLLSSHNLRYELVDSVYDKSLAPGVVVEMVPQSGNTVKPGRIIFLSINA” the “soluble fraction (log2)” value was -0.878.
In the case of “HMDFSENEPVTVRVLSILKNNTIRIAVKGAVLQAQTALSQDIREGAFLLMRVHITDNTVVLTPY”, the “soluble fraction (log2)” value is reported as 0.0533.
In the case of “HMRELPKRPEIRYAAGDRVFHKAFGNGLVKQVAQTAGGARVTVDFGEGKGVKTFAGDAPMIKI”, the “soluble fraction (log2)” value is reported as 0.342.
With “HMTAFEPYLVKVMASVLNIRKGPGTSYAITGQIKDKGTYTIVAESGSWGKLKSGAGWISLSYTSKAGKA” the “soluble fraction (log2)” value was -0.67.
For “HMETIGKRVRAARQELGLTMKQLHEQTGLSTGNISDIENDRNTPSVSSLVALGRALRRSLDWLLTGEE”, the “soluble fraction (log2)” value was -0.252.
For “HMLRDMIIQSYRYYTDKERNPRQVWNRMEADAFWEIIRDYEGYNGDGYVHTKIIPEMEALTVIEMDN”, the “soluble fraction (log2)” value was -1.62.
For “HMAGLKERLFYFIEYKGLTVQSFEKTVGLSNGAVSKMGDNTRRSTIDKISNFFGDLNKNWLLTGEGEMLI”, the “soluble fraction (log2)” value was -0.99.
For “HMLKIAENIYQRRKEKNITQEELADFMMVTKASVSKWETGQSYPDILLLPKLATFFNVTVDELIGYEPQ”, the “soluble fraction (log2)” value was -1.2.
For “HMQPASPELNNQEKKVLQALPENEVIHIDELSDKIQIPVGELLTVLLSLEMKETVIQEPGKFFRRR”, the “soluble fraction (log2)” value was -1.28.
With “HMDAEETLGARLRRLRQARGLSLAGLAQAAGLSKPSIWAWENGTTAPRRTSLLALARALDVPEQQLTGV” the “soluble fraction (log2)” value was -0.358.
For “HMPRSREVHVEPGMVLEDVTTGFVGAVIRTEKSAGIYVIELEDRRGRRRSFPLGGGFWLDGRPIIALPPLP”, the “soluble fraction (log2)” value was -1.19.
With “HMPKLTKEEIQFIDNYLKNSGVEYIDTRAEVVDHVASEIESRLSANNTTNFYEEFKVYMVQHKETLLK” the “soluble fraction (log2)” value was -0.49.
With “HMENRILLSEDSLKHLAQDIPIDIIEKLSVLKDQIYHRYDDFNSIVQGLLGGENYLKYKDNILSFVEQ” the “soluble fraction (log2)” value was 0.0624.
For “HMNLGAHVYWRNHRAYGDFREYEDVGGGREALALPGSTWGTKDPRVAQALFAARLTEFQEARVGR”, the “soluble fraction (log2)” value was -1.05.
With “HMDDGLTRLTPRENEVLELMAQGRSNTAIAERLVLSYGAVEKNVSSIFTKLDLPLDAGDHRRVLAVLRRLN” the “soluble fraction (log2)” value was -0.688.
In the case of “HMSFKQARFMMDAANGKALAWLYSHAEVLDRKDQGENIEIHVMISPADLSRFVNAFGYQPVQS”, the “soluble fraction (log2)” value is reported as -0.2.
For “HMAVPFTIDVSQNGRYFIEEDNQVVEVSIGFLEDRFLRIIKSNPDIEVIIRGDAKASYESIAELLAVLQ”, the “soluble fraction (log2)” value was -1.06.
For “HMLSVRERMSAILVSLEGERYADFTGLFDPTEGKGGVTVTFLAILELLKESMIDVVQNELYGPIHVRAA”, the “soluble fraction (log2)” value was -0.368.
With “HMKISIDNPSVLLDKLATLFPDTSKNKLRKMLTEGRIYVNDNIEHRAKRELINGDTVKILDKTTSKE” the “soluble fraction (log2)” value was 0.0915.
For “HMKPSTVSVPDVSGDKLSTAKMIIRKSGLKVGDVQKIEDDNVGAGKVVRTNPSAGSKKREGSSVDIFVASA”, the “soluble fraction (log2)” value was 0.16.
With “HMSQLSQIVDAFGGLRPFARALNKPPSTVQYWIEKGGIPASVVSPIMKLSEEKGLGLSRDQVSAAVS” the “soluble fraction (log2)” value was 0.157.
With “HMFNTWLGEIRSNTGANVRSGPDASAAIVDARPNETVVRVIGQSGNWLQIGDKQFVAQSLVAP” the “soluble fraction (log2)” value was -0.0505.
In the case of “HMLMSDEENAEFTKLYRQLVFKLHPDLNPNQTKDEENLWHKVQMAYKGGDLEEMRSLAIILDAQ”, the “soluble fraction (log2)” value is reported as -0.0474.
In the case of “HMYFEDEELDRFVGTPAGAYTEEDVEEFRDVLLSLDIEEVPSWVRSLQLRGIDFPETLRPELYLL”, the “soluble fraction (log2)” value is reported as -3.14.
For “HMTPELTAEEREVLSLLGDEPRTLAELIAASGRDYAALSVLLMGLELSQAVRQLPGNRYERF”, the “soluble fraction (log2)” value was -0.934.
With “HMDGKPSLIISNGQINYKEMVKLRYSLEDLLFQLRQNSIKSIEEVEYAFLESNGKLSIFPYNFL” the “soluble fraction (log2)” value was -1.51.
For “HMENSMDTDWDVSGVDPSQYRLLFSTLGAIAGVKDVGLNPDGLKIIHTPEALPAIKQAFDANNLKLKMRTN”, the “soluble fraction (log2)” value was 0.163.
With “HMIDSVFASYRQVALDDELWDKVRNGAVLPKVELFEVMDGPVLFTYQSKIVAMYEPHPTKAGYIKPRKMFL” the “soluble fraction (log2)” value was -1.18.
For “HMIAWNFDTMKESLSEMERVDYQEFIKAFLSLELSISDRTILNQVYQDYMDEDDLSLISDELRV”, the “soluble fraction (log2)” value was 0.0819.
